From patent US20160272683A1 (Novo Nordisk, published 2016)
Numbered stars: 1 amine (or outer) side, 2 acyl side, 3 side chain; on linkers, the order of the positions; unused ones are H or OH. Side chains are listed from the residue outwards. Ends that are not written are not given here. * marks the point of attachment. C20 diacid = O=C(O)CCCCCCCCCCCCCCCCCCC(=O)*; C18 diacid = O=C(O)CCCCCCCCCCCCCCCCC(=O)*; γGlu = O=C(O)[C@H](CCC(=O)[*:2])N[*:1]

T1: human amylin 3(a) receptor (human calcitonin receptor co-expressed with RAMP-3) on BHK570/CRE-luc cells (human, UniProt P30988 25-474; O60896 24-148)
T1 sequence (looked up) 1: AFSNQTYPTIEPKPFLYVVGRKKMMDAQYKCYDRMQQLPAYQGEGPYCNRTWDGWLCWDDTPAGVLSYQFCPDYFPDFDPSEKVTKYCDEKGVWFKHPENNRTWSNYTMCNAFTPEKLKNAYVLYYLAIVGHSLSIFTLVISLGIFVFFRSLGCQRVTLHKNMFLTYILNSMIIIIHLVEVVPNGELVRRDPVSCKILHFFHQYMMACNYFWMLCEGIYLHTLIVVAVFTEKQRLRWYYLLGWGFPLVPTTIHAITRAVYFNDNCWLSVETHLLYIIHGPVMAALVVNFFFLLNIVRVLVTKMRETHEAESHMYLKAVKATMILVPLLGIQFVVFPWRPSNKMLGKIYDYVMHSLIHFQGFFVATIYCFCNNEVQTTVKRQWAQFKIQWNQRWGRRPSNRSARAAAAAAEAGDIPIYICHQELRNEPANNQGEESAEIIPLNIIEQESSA
T1 sequence (looked up) 2: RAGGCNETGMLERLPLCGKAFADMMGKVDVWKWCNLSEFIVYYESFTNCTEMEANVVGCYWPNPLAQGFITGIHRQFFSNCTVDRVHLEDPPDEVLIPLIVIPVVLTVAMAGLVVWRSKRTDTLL

T2: human calcitonin receptor on BHK570/CRE-luc cells (human, UniProt P30988 25-474)
T2 sequence (looked up): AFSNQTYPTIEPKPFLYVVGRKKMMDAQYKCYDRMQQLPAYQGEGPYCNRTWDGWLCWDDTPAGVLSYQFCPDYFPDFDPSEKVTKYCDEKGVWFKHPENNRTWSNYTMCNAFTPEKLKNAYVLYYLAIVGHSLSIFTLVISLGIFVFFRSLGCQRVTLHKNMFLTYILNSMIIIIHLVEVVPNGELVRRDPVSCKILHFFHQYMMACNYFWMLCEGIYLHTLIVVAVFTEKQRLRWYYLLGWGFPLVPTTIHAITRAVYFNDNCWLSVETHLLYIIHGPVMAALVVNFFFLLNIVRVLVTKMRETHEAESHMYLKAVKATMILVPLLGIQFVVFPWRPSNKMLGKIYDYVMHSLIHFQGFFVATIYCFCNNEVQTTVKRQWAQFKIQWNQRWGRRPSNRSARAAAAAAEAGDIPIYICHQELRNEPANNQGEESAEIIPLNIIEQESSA

B1: [N-terminal(C20 diacid), des1, 4G, 15Q, 21Q, 23Y, 30S, 31G, 32T, 33Y]mimylin (peptide)
peptide: {C20 diacid}-ASGLSTAALGRLSQELHELQTYPRTETGSGTY-NH2
SMILES: CC(C)C[C@H](NC(=O)CNC(=O)[C@H](CO)NC(=O)[C@H](C)NC(=O)CCCCCCCCCCCCCCCCCCC(=O)O)C(=O)N[C@@H](CO)C(=O)N[C@H](C(=O)N[C@@H](C)C(=O)N[C@@H](C)C(=O)N[C@@H](CC(C)C)C(=O)NCC(=O)N[C@@H](CCCNC(=N)N)C(=O)N[C@@H](CC(C)C)C(=O)N[C@@H](CO)C(=O)N[C@@H](CCC(N)=O)C(=O)N[C@@H](CCC(=O)O)C(=O)N[C@@H](CC(C)C)C(=O)N[C@@H](Cc1c[nH]cn1)C(=O)N[C@@H](CCC(=O)O)C(=O)N[C@@H](CC(C)C)C(=O)N[C@@H](CCC(N)=O)C(=O)N[C@H](C(=O)N[C@@H](Cc1ccc(O)cc1)C(=O)N1CCC[C@H]1C(=O)N[C@@H](CCCNC(=N)N)C(=O)N[C@H](C(=O)N[C@@H](CCC(=O)O)C(=O)N[C@H](C(=O)NCC(=O)N[C@@H](CO)C(=O)NCC(=O)N[C@H](C(=O)N[C@@H](Cc1ccc(O)cc1)C(N)=O)[C@@H](C)O)[C@@H](C)O)[C@@H](C)O)[C@@H](C)O)[C@@H](C)O
B2: [N-terminal(C20 diacid-gGlu), des1, 4G, 15E, 21Q, 23Y, 30S, 31G, 32T, 33Y]mimylin (peptide)
peptide: {C20 diacid-γGlu}-ASGLSTAALGRLSEELHELQTYPRTETGSGTY-NH2
SMILES: CC(C)C[C@H](NC(=O)CNC(=O)[C@H](CO)NC(=O)[C@H](C)NC(=O)CC[C@H](NC(=O)CCCCCCCCCCCCCCCCCCC(=O)O)C(=O)O)C(=O)N[C@@H](CO)C(=O)N[C@H](C(=O)N[C@@H](C)C(=O)N[C@@H](C)C(=O)N[C@@H](CC(C)C)C(=O)NCC(=O)N[C@@H](CCCNC(=N)N)C(=O)N[C@@H](CC(C)C)C(=O)N[C@@H](CO)C(=O)N[C@@H](CCC(=O)O)C(=O)N[C@@H](CCC(=O)O)C(=O)N[C@@H](CC(C)C)C(=O)N[C@@H](Cc1c[nH]cn1)C(=O)N[C@@H](CCC(=O)O)C(=O)N[C@@H](CC(C)C)C(=O)N[C@@H](CCC(N)=O)C(=O)N[C@H](C(=O)N[C@@H](Cc1ccc(O)cc1)C(=O)N1CCC[C@H]1C(=O)N[C@@H](CCCNC(=N)N)C(=O)N[C@H](C(=O)N[C@@H](CCC(=O)O)C(=O)N[C@H](C(=O)NCC(=O)N[C@@H](CO)C(=O)NCC(=O)N[C@H](C(=O)N[C@@H](Cc1ccc(O)cc1)C(N)=O)[C@@H](C)O)[C@@H](C)O)[C@@H](C)O)[C@@H](C)O)[C@@H](C)O
B3: [N-terminal(C20 diacid-gGlu), des1, 4G, 15Q, 21E, 23Y, 30S, 31G, 32T, 33Y]mimylin (peptide)
peptide: {C20 diacid-γGlu}-ASGLSTAALGRLSQELHELETYPRTETGSGTY-NH2
SMILES: CC(C)C[C@H](NC(=O)CNC(=O)[C@H](CO)NC(=O)[C@H](C)NC(=O)CC[C@H](NC(=O)CCCCCCCCCCCCCCCCCCC(=O)O)C(=O)O)C(=O)N[C@@H](CO)C(=O)N[C@H](C(=O)N[C@@H](C)C(=O)N[C@@H](C)C(=O)N[C@@H](CC(C)C)C(=O)NCC(=O)N[C@@H](CCCNC(=N)N)C(=O)N[C@@H](CC(C)C)C(=O)N[C@@H](CO)C(=O)N[C@@H](CCC(N)=O)C(=O)N[C@@H](CCC(=O)O)C(=O)N[C@@H](CC(C)C)C(=O)N[C@@H](Cc1c[nH]cn1)C(=O)N[C@@H](CCC(=O)O)C(=O)N[C@@H](CC(C)C)C(=O)N[C@@H](CCC(=O)O)C(=O)N[C@H](C(=O)N[C@@H](Cc1ccc(O)cc1)C(=O)N1CCC[C@H]1C(=O)N[C@@H](CCCNC(=N)N)C(=O)N[C@H](C(=O)N[C@@H](CCC(=O)O)C(=O)N[C@H](C(=O)NCC(=O)N[C@@H](CO)C(=O)NCC(=O)N[C@H](C(=O)N[C@@H](Cc1ccc(O)cc1)C(N)=O)[C@@H](C)O)[C@@H](C)O)[C@@H](C)O)[C@@H](C)O)[C@@H](C)O
B4: [N-terminal(C20 diacid-gGlu), des1, 4G, 15Q, 21Q, 23Y, 30S, 31Q, 32T, 33Y]mimylin (peptide)
peptide: {C20 diacid-γGlu}-ASGLSTAALGRLSQELHELQTYPRTETGSQTY-NH2
SMILES: CC(C)C[C@H](NC(=O)CNC(=O)[C@H](CO)NC(=O)[C@H](C)NC(=O)CC[C@H](NC(=O)CCCCCCCCCCCCCCCCCCC(=O)O)C(=O)O)C(=O)N[C@@H](CO)C(=O)N[C@H](C(=O)N[C@@H](C)C(=O)N[C@@H](C)C(=O)N[C@@H](CC(C)C)C(=O)NCC(=O)N[C@@H](CCCNC(=N)N)C(=O)N[C@@H](CC(C)C)C(=O)N[C@@H](CO)C(=O)N[C@@H](CCC(N)=O)C(=O)N[C@@H](CCC(=O)O)C(=O)N[C@@H](CC(C)C)C(=O)N[C@@H](Cc1c[nH]cn1)C(=O)N[C@@H](CCC(=O)O)C(=O)N[C@@H](CC(C)C)C(=O)N[C@@H](CCC(N)=O)C(=O)N[C@H](C(=O)N[C@@H](Cc1ccc(O)cc1)C(=O)N1CCC[C@H]1C(=O)N[C@@H](CCCNC(=N)N)C(=O)N[C@H](C(=O)N[C@@H](CCC(=O)O)C(=O)N[C@H](C(=O)NCC(=O)N[C@@H](CO)C(=O)N[C@@H](CCC(N)=O)C(=O)N[C@H](C(=O)N[C@@H](Cc1ccc(O)cc1)C(N)=O)[C@@H](C)O)[C@@H](C)O)[C@@H](C)O)[C@@H](C)O)[C@@H](C)O
B5: [N-terminal(C18 diacid-gGlu), des1, 4G, 15Q, 21Q, 23Y, 30S, 31G, 32T, 33Y]mimylin (peptide)
peptide: {C18 diacid-γGlu}-ASGLSTAALGRLSQELHELQTYPRTETGSGTY-NH2
SMILES: CC(C)C[C@H](NC(=O)CNC(=O)[C@H](CO)NC(=O)[C@H](C)NC(=O)CC[C@H](NC(=O)CCCCCCCCCCCCCCCCC(=O)O)C(=O)O)C(=O)N[C@@H](CO)C(=O)N[C@H](C(=O)N[C@@H](C)C(=O)N[C@@H](C)C(=O)N[C@@H](CC(C)C)C(=O)NCC(=O)N[C@@H](CCCNC(=N)N)C(=O)N[C@@H](CC(C)C)C(=O)N[C@@H](CO)C(=O)N[C@@H](CCC(N)=O)C(=O)N[C@@H](CCC(=O)O)C(=O)N[C@@H](CC(C)C)C(=O)N[C@@H](Cc1c[nH]cn1)C(=O)N[C@@H](CCC(=O)O)C(=O)N[C@@H](CC(C)C)C(=O)N[C@@H](CCC(N)=O)C(=O)N[C@H](C(=O)N[C@@H](Cc1ccc(O)cc1)C(=O)N1CCC[C@H]1C(=O)N[C@@H](CCCNC(=N)N)C(=O)N[C@H](C(=O)N[C@@H](CCC(=O)O)C(=O)N[C@H](C(=O)NCC(=O)N[C@@H](CO)C(=O)NCC(=O)N[C@H](C(=O)N[C@@H](Cc1ccc(O)cc1)C(N)=O)[C@@H](C)O)[C@@H](C)O)[C@@H](C)O)[C@@H](C)O)[C@@H](C)O
B6: [des1, 4G, 15Q, 21Q, 23Y, 30S, 31K(C20 diacid-gGlu), 32T, 33Y]mimylin (peptide)
peptide: ASGLSTAALGRLSQELHELQTYPRTETGSK([γGlu-C20 diacid])TY-NH2
modifications: N-terminus assumed
SMILES: CC(C)C[C@H](NC(=O)CNC(=O)[C@H](CO)NC(=O)[C@H](C)N)C(=O)N[C@@H](CO)C(=O)N[C@H](C(=O)N[C@@H](C)C(=O)N[C@@H](C)C(=O)N[C@@H](CC(C)C)C(=O)NCC(=O)N[C@@H](CCCNC(=N)N)C(=O)N[C@@H](CC(C)C)C(=O)N[C@@H](CO)C(=O)N[C@@H](CCC(N)=O)C(=O)N[C@@H](CCC(=O)O)C(=O)N[C@@H](CC(C)C)C(=O)N[C@@H](Cc1c[nH]cn1)C(=O)N[C@@H](CCC(=O)O)C(=O)N[C@@H](CC(C)C)C(=O)N[C@@H](CCC(N)=O)C(=O)N[C@H](C(=O)N[C@@H](Cc1ccc(O)cc1)C(=O)N1CCC[C@H]1C(=O)N[C@@H](CCCNC(=N)N)C(=O)N[C@H](C(=O)N[C@@H](CCC(=O)O)C(=O)N[C@H](C(=O)NCC(=O)N[C@@H](CO)C(=O)N[C@@H](CCCCNC(=O)CC[C@H](NC(=O)CCCCCCCCCCCCCCCCCCC(=O)O)C(=O)O)C(=O)N[C@H](C(=O)N[C@@H](Cc1ccc(O)cc1)C(N)=O)[C@@H](C)O)[C@@H](C)O)[C@@H](C)O)[C@@H](C)O)[C@@H](C)O
B7: [N-terminal(C20 diacid-gGlu), des1, 4G, 15T, 21E, 23Y, 30S, 31G, 32T, 33Y]mimylin (peptide)
peptide: {C20 diacid-γGlu}-ASGLSTAALGRLSTELHELETYPRTETGSGTY-NH2
SMILES: CC(C)C[C@H](NC(=O)CNC(=O)[C@H](CO)NC(=O)[C@H](C)NC(=O)CC[C@H](NC(=O)CCCCCCCCCCCCCCCCCCC(=O)O)C(=O)O)C(=O)N[C@@H](CO)C(=O)N[C@H](C(=O)N[C@@H](C)C(=O)N[C@@H](C)C(=O)N[C@@H](CC(C)C)C(=O)NCC(=O)N[C@@H](CCCNC(=N)N)C(=O)N[C@@H](CC(C)C)C(=O)N[C@@H](CO)C(=O)N[C@H](C(=O)N[C@@H](CCC(=O)O)C(=O)N[C@@H](CC(C)C)C(=O)N[C@@H](Cc1c[nH]cn1)C(=O)N[C@@H](CCC(=O)O)C(=O)N[C@@H](CC(C)C)C(=O)N[C@@H](CCC(=O)O)C(=O)N[C@H](C(=O)N[C@@H](Cc1ccc(O)cc1)C(=O)N1CCC[C@H]1C(=O)N[C@@H](CCCNC(=N)N)C(=O)N[C@H](C(=O)N[C@@H](CCC(=O)O)C(=O)N[C@H](C(=O)NCC(=O)N[C@@H](CO)C(=O)NCC(=O)N[C@H](C(=O)N[C@@H](Cc1ccc(O)cc1)C(N)=O)[C@@H](C)O)[C@@H](C)O)[C@@H](C)O)[C@@H](C)O)[C@@H](C)O)[C@@H](C)O

Legend:
[1] = molecular target: T1, human amylin 3(a) receptor (human …); assay: cell-based or functional assay
[2] = molecular target: T2, human calcitonin receptor on …; assay: cell-based or functional assay

Binder	hAmylin-R funct. EC50 (pM), tested with HSA [1] [pM]	hCTR funct. EC50 (pM), tested with HSA [2] [pM]
B1	52	49
B2	159	57
B3	150	68
B4	158	108
B5	70	53
B6	335	113
B7	291	67
